Among the data in patent US6100053A, “Microbial transglutaminases, their production and use” (priority 1994, dated 2000) are Units/ml (putrescine assay) values, retold here.

This assay addresses α-casein.

“transglutaminase preparation (culture broth) of Cladosporium resinae (pool or library)”: the Units/ml (putrescine assay) stood at 0.14 Units/ml. The substance “transglutaminase preparation (culture broth) of Monodictys pelagica (pool or library)” registered a Units/ml (putrescine assay) of 2.31 Units/ml. For the substance “transglutaminase preparation (culture broth) of Panaeolus papilionaceus (pool or library)”, the Units/ml (putrescine assay) turned out to be 0.15 Units/ml. “transglutaminase preparation (culture broth) of Chamaemyces fracidus (pool or library)”: the Units/ml (putrescine assay) stood at 0.2 Units/ml. The figure for “transglutaminase preparation (culture broth) of Beauveria cylindrospora (pool or library)” is 0.24 Units/ml; for “transglutaminase preparation (culture broth) of Cercospora sesami (pool or library)” it is 0.24 Units/ml.

“transglutaminase preparation (culture broth) of Savoryella lignicola (pool or library)”: the Units/ml (putrescine assay) was 6.24 Units/ml. Consider “transglutaminase preparation (culture broth) of Aspergillus puniceus (pool or library)”, for which the Units/ml (putrescine assay) was determined as 0.12 Units/ml. The figure for “transglutaminase preparation (culture broth) of Lulworthia uniseptata (pool or library)” is 0.36 Units/ml; for “transglutaminase preparation (culture broth) of Neosartorya quadricineta (pool or library)” it is 0.22 Units/ml. In turn, “transglutaminase preparation (culture broth) of Coprinus cinereus (pool or library)” gave a Units/ml (putrescine assay) of 0.14 Units/ml. Under “transglutaminase preparation (culture broth) of Carponia solliomaris (pool or library)” stands 0.11 Units/ml; under “transglutaminase preparation (culture broth) of Talaromyces helicus (pool or library)”, 0.23 Units/ml. “transglutaminase preparation (culture broth) of Rhizoctonia solani (pool or library)” yielded a Units/ml (putrescine assay) of 0.17 Units/ml.

For the substance “transglutaminase preparation (culture broth) of Hypholoma fasciculare (pool or library)”, the Units/ml (putrescine assay) is 0.14 Units/ml.

“transglutaminase preparation (culture broth) of Halosphaeriopsis mediosetigera (pool or library)”: the Units/ml (putrescine assay) turned out to be 0.34 Units/ml. Under “transglutaminase preparation (culture broth) of Cladosporium cladosporiodes (pool or library)” stands 0.22 Units/ml; under “transglutaminase preparation (culture broth) of Sporormiella australis (pool or library)”, 0.13 Units/ml. Substance “transglutaminase preparation (culture broth) of Mucor aligarensis (pool or library)” displayed a Units/ml (putrescine assay) of 0.31 Units/ml. Regarding “transglutaminase preparation (culture broth) of Fusarium armeniacum (pool or library)”, the Units/ml (putrescine assay) was 0.19 Units/ml. Under “transglutaminase preparation (culture broth) of Nidula sp. (pool or library)” stands 0.14 Units/ml.

In turn, “transglutaminase preparation (culture broth) of Dimorphosporum disporatrichum (pool or library)” had a Units/ml (putrescine assay) of 0.42 Units/ml. Under “transglutaminase preparation (culture broth) of Amylostereum chailletii (pool or library)” stands 0.44 Units/ml; under “transglutaminase preparation (culture broth) of Byssochlamys fulva (pool or library)”, 0.24 Units/ml; under “transglutaminase preparation (culture broth) of Tricholoma flavovirens (pool or library)”, 0.16 Units/ml. The figure for “transglutaminase preparation (culture broth) of Fusarium decemcellulare (pool or library)” is 0.1 Units/ml. The figure for “transglutaminase preparation (culture broth) of Pycnoporus cinnabarinus (pool or library)” is 0.14 Units/ml; for “transglutaminase preparation (culture broth) of Trametes hirsuta (pool or library)” it is 0.21 Units/ml. “transglutaminase preparation (culture broth) of Fusarium flocciferum (pool or library)” gave a Units/ml (putrescine assay) of 0.15 Units/ml. For the substance “transglutaminase preparation (culture broth) of Hymenochaete corticola (pool or library)”, the Units/ml (putrescine assay) turned out to be 1.31 Units/ml. The figure for “transglutaminase preparation (culture broth) of Fusarium dimerum (pool or library)” is 0.25 Units/ml; for “transglutaminase preparation (culture broth) of Aspergillus giganteus (pool or library)” it is 0.19 Units/ml. For “transglutaminase preparation (culture broth) of Psathyrella condolleana (pool or library)”, the Units/ml (putrescine assay) came to 0.19 Units/ml. The figure for “transglutaminase preparation (culture broth) of Cercospora beticola (pool or library)” is 1.58 Units/ml; for “transglutaminase preparation (culture broth) of Tricholoma myomyces (pool or library)” it is 0.23 Units/ml; for “transglutaminase preparation (culture broth) of Curvularia borreiae (pool or library)” it is 0.28 Units/ml. Under “transglutaminase preparation (culture broth) of Aspergillus heteromorphus (pool or library)” stands 0.12 Units/ml; under “transglutaminase preparation (culture broth) of Nodulisporium sp. (pool or library)”, 1.2 Units/ml. Regarding “transglutaminase preparation (culture broth) of Aspergillus tamarii (pool or library)”, the Units/ml (putrescine assay) turned out to be 0.16 Units/ml. “transglutaminase preparation (culture broth) of Kuhneromyces variabilis (pool or library)” gave a Units/ml (putrescine assay) of 0.14 Units/ml.

“transglutaminase preparation (culture broth) of Ascotricha erinacea (pool or library)” returned a Units/ml (putrescine assay) of 0.15 Units/ml. Under “transglutaminase preparation (culture broth) of Sporormiella minima (pool or library)” stands 0.2 Units/ml; under “transglutaminase preparation (culture broth) of Aspergillus foetidus (pool or library)”, 0.23 Units/ml. As for “transglutaminase preparation (culture broth) of Alternaria alternata (pool or library)”, the Units/ml (putrescine assay) came to 0.16 Units/ml. Substance “transglutaminase preparation (culture broth) of Humicola alopallonella (pool or library)” registered a Units/ml (putrescine assay) of 0.76 Units/ml.

Turning to “transglutaminase preparation (culture broth) of Cercospora hayi (pool or library)”, the Units/ml (putrescine assay) worked out at 0.26 Units/ml. Under “transglutaminase preparation (culture broth) of Agaricus sp. (pool or library)” stands 0.15 Units/ml. Under “transglutaminase preparation (culture broth) of Podospora tetraspora (pool or library)” stands 0.3 Units/ml; under “transglutaminase preparation (culture broth) of Coprinus sp. (pool or library)”, 0.44 Units/ml.

Regarding “transglutaminase preparation (culture broth) of Coniothyrium cerealis (pool or library)”, the Units/ml (putrescine assay) came out at 0.13 Units/ml. Under “transglutaminase preparation (culture broth) of Warcupiella spinulosa (pool or library)” stands 0.41 Units/ml; under “transglutaminase preparation (culture broth) of Cercospora carisis (pool or library)”, 13 Units/ml; under “transglutaminase preparation (culture broth) of Dendryphiella salina (pool or library)”, 0.96 Units/ml. Under “transglutaminase preparation (culture broth) of Botryosphaeria rhodina (pool or library)” stands 0.32 Units/ml; under “transglutaminase preparation (culture broth) of Chaetomium funicolum (pool or library)”, 0.16 Units/ml; under “transglutaminase preparation (culture broth) of Pleurotus sp. (pool or library)”, 2.36 Units/ml. Substance “transglutaminase preparation (culture broth) of Armillaria sp. (pool or library)” registered a Units/ml (putrescine assay) of 0.62 Units/ml. Take “transglutaminase preparation (culture broth) of Hortea werneckii (pool or library)”: the Units/ml (putrescine assay) came out at 0.95 Units/ml.
